In patent US20040131610A1 one finds DC uptake of apoptotic tumor cells data, which are given here for 1 substance.

The assay deals with Fc gamma receptor (Fc(γ)R) on dendritic cells. Put plainly: cell-based or functional assay.

monoclonal antibody 3G4 (ATCC PTA 4545): the DC uptake of apoptotic tumor cells turned out to be 300%.
